According to patent WO2012010582A1:

Target: human CXCR5 (human) (UniProt P32302)
Experiment: cell-based or functional assay

UniProt P32302, sequence (P32302 whole entry): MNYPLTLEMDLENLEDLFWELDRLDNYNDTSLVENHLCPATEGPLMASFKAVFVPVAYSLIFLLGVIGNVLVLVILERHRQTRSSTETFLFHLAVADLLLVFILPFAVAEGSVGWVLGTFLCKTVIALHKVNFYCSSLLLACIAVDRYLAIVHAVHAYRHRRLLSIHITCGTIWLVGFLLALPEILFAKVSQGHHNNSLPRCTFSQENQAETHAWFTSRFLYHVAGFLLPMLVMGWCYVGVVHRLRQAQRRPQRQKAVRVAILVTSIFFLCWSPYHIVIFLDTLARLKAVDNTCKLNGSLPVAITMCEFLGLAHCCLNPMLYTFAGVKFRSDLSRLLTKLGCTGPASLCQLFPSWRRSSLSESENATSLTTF

## human CXCL13 (from UniProt O43927 23-94) (ligand)
  Ca-flux (FLU) at 0 nM rhCXCL13 (baseline): 1680 FLU
  Ca-flux (FLU) at 1.95 nM rhCXCL13: 2220 FLU
  Ca-flux (FLU) at 3.91 nM rhCXCL13: 1840 FLU
  Ca-flux (FLU) at 7.81 nM rhCXCL13: 1860 FLU
  Ca-flux (FLU) at 16 nM rhCXCL13: 6160 FLU
  Ca-flux (FLU) at 31 nM rhCXCL13: 31100 FLU
  Ca-flux (FLU) at 63 nM rhCXCL13: 51900 FLU
  Ca-flux (FLU) at 125 nM rhCXCL13: 74700 FLU
  Ca-flux (FLU) at 250 nM rhCXCL13: 78400 FLU
  Ca-flux (FLU) at 500 nM rhCXCL13: 68100 FLU
